Consider three molecules from patent US20020065398A1 (CENTRO DE INMUNOLOGIA MOLECULAR, published 2002).

Experiment [1] concerns the target T1, human epidermal growth factor receptor (human, UniProt P00533 25-1210).
T1 construct: whole, on cells; also called EGF-R; EGF receptor
Put plainly: RRA, 125I-EGF competition on human placenta microsomal fraction.

The target of experiment [2] is T1, human epidermal growth factor receptor. Put plainly: RRA, concentrated supernatants of transfected NSO cells.

B1: first version of humanized R3 antibody (R3-huVH(a) with R3-huVK) (antibody, human IgG1, V domains shown)
VH: QVQLQQSGAEVKKPGSSVKVSCKASGYTFTNYYIYWVRQAPGQGLEWIGGINPTSGGSNFNEKFKTRVTITVDESTNTAYMELSSLRSEDTAFYFCARQGLWFDSDGRGFDFWGQGSTVTVSS
VL: DIQMTQSPSSLSASVGDRVTITCRSSQNIVHSNGNTYLDWYQQTPGKAPKLLIYKVSNRFSGVPSRFSGSGSGTDFTFTISSLQPEDIATYYCFQYSHVPWTFGQGTKLQITR
notes: R3 CDRs grafted on human Eu (VH) and REI (VK) frameworks; human IgG1 / kappa constant regions; also called humanized (1) R3; version 1
As for B1, the binding result in experiment [1] is recorded as “no binding”.

B2: reshaped R3VH-K66A67 with huVKR3 (antibody, V domains shown)
VH: QVQLQQSGAEVKKPGSSVKVSCKASGYTFTNYYIYWVRQAPGQGLEWIGGINPTSGGSNFNEKFKTKATITVDESTNTAYMELSSLRSEDTAFYFCARQGLWFDSDGRGFDFWGQGSTVTVSS
VL: DIQMTQSPSSLSASVGDRVTITCRSSQNIVHSNGNTYLDWYQQTPGKAPKLLIYKVSNRFSGVPSRFSGSGSGTDFTFTISSLQPEDIATYYCFQYSHVPWTFGQGTKLQIT
notes: Human IgG1 / kappa; also called 66 and 67 changes
Take B2: in experiment [1], the binding result is on record as “no binding”.

B3: hybrid humanized R3VH/murine R3VK (antibody, V domains shown)
VH: QVQLQQSGAEVKKPGSSVKVSCKASGYTFTNYYIYWVRQAPGQGLEWIGGINPTSGGSNFNEKFKTRVTITVDESTNTAYMELSSLRSEDTAFYFCARQGLWFDSDGRGFDFWGQGSTVTVSS
VL: DVLMTQIPLSLPVSLGDGASISCRSSQNIVHSNGNTYLDWYLQKPGQSPNLLIYKVSNRFSGVPDRFRGSGSGTDFTLKISRVEAEDLGVYYCFQYSHVPWTFGGGTKLEIK
notes: Human gamma-1 and kappa constant regions; tested as concentrated supernatant of transfected NSO cells; The hybrid was made before the further VH versions, so its humanized VH is read as the first version
For B3, the binding result in experiment [2] is “no binding”.
